Source: the supplement of paper PMC12667976

B1: library; numbered along this chain (parent)
chain: MATDAALRRLLRLHRTEIAVAVDSAFPLLHALADHDVVPEDKFQETLHLKEKEGCPQAFHALLSWLLTQDSTAILDFWRVLFKDYNLERYGRLQPILDSFPKDVDLSQPRKGRKPPAVPKALVPPPRLPTKRKASEEARAAAPAALTPRGTASPGSQLKAKPPKKPESSAEQQRLPLGNGIQTMSASVQRAVAMSSGDVPGARGAVEGILIQQVFESGGSKKCIQVGGEFYTPSKFEDSGSGKNKARSSSGPKPLVRAKGAQGAAPGGGEARLGQQGSVPAPLALPSDPQLHQKNEDECAVCRDGGELICCDGCPRAFHLACLSPPLREIPSGTWRCSSCLQATVQEVQPRAEEPRPQEPPVETPLPPGLRSAGEEVRGPPGEPLAGMDTTLVYKHLPAPPSAAPLPGLDSSALHPLLCVGPEGQQNLAPGARCGVCGDGTDVLRCTHCAAAFHWRCHFPAGTSRPGTGLRCRSCSGDVTPAPVEGVLAPSPARLAPGPAKDDTASHEPALHRDDLESLLSEHTFDGILQWAIQSMARPAAPFPS

Variants of: B1
Test: AIRE transcriptional activation functional score (insulin promoter-GFP; nonsense median 0, synonymous median 1) (normalised score); higher = higher AIRE activity (more reporter activation)
Conditions: with insulin promoter-GFP reporter in HEK293
Procedure: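 Deep mutational scan of full-length human AIRE (codon-optimized cDNA, DT-POPCode NNN libraries over three regions) integrated at a Bxb1 landing pad in HEK293 cells carrying an insulin core promoter-GFP reporter at a Flp-In site. Cells were sorted for the top 10% GFP about 14 days after transfection. Variant frequency log-ratios (select vs non-select, TileSeq) were rescaled so that the nonsense median is 0 and the synonymous median is 1, then averaged over biological replicates.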

AIRE transcriptional activation functional score of substitutions, site by site:
R203: N 0.0951; K 0.243; I 1.2; Q 1.13; H 0.141; L 1.1; E -0.0204; G 0.547; T 0.744; A 1.19; S 0.794; Y 0.581; W 0.289; F 0.572; V 1.57; C 1.82; P 1.03
E207: P 0.476; D 0.788; K 0.169; F 0.67; G 1.11; W -0.268; I 0.19; C 0.532; L 0.143; N 0.371; R 0.167; Y 0.0192; V -0.0618; Q 0.672; S 0.372; A -0.0187; T 0.3; M -0.394; H 0.756
I209: K 0.159; A 0.165; M 0.79; S 0.203; C -0.0153; W 0.784; T 0.1; N 0.657; D 0.64; F 0.905; G 0.579; V 0.66; L 0.758; E 0.5; R 0.917; P 0.35; Y 0.98
Q213: K 1.02; M -0.306; I -0.822; E 0.718; C 0.354; H 1.15; L 0.173; G 0.977; A 0.437; F -0.348
V199: R 0.735; C 0.807; S 0.671; T 0.462; F 1.24; G 1.09; L 0.982; M 1.18; W 0.623; Y 1.4; H 0.599; P 0.723; K 0.754; Q 0.755; N 0.886; I 1.37; E 0.905; A 0.731; D 0.863
P200: K 0.571; C 1.43; V 0.795; R 0.99; G 0.879; L 1.12; N 1.12; F 0.777; S 1.06; Q 1.18; H 1.08; D 0.545; M 1.52; Y 0.0754; T 0.911; I 0.675; A 0.713
G201: F 1.02; V 0.941; Q 1.05; A 0.802; I 1.23; K 0.778; P 0.598; E 0.791; W 0.489; N 1.01; C 1.03; R 0.837; M 1.67; L 1.32; Y 1.17; D 0.481; T 0.924; H 1.02; S 0.809
A205: N 0.648; Y 0.153; H 1.58; V 0.34; I -0.0126; L 0.428; T 1.19; M -0.0564; R 0.318; S 1.09; K 1.17; D 0.746; W -0.461; C 1; G 0.764; Q 0.529; F 0.213; P 0.728; E 0.647
A202: S 0.848; E 0.791; I 0.93; H 1; F 0.397; P 0.867; D 0.687; M 1.19; V 1.11; L 0.939; G 0.818; N 1.59; C 1.39; K 0.112; R 1.08; W 0.488; T 0.777; Q 0.415; Y 1.13
V206: P 0.762; A 0.817; Q 0.0809; S 0.691; N 0.529; E 0.273; G 0.631; T 0.68; W 0.352; L 1.1; H 0.927; M 0.51; D 0.39; F 0.751; K 0.691; Y 0.936; C 0.542; I 1.26; R 0.478
Q212: I -0.568; D -0.139; E 0.507; V -0.424; W -0.0246; P 0.358; H 1.68; R 1.09; F 0.392; K 1.04; A -0.0175; L -0.00712; C 1.01; T 0.447; G 0.371; S 1.14
D198: K 0.684; S 1.19; H 0.856; I 0.948; P 0.58; R 0.663; V 0.978; L 0.549; T 1.51; A 1.03; G 1.08; N 1.09; E 1.2; F 0.583; Q 0.627; W -0.417; C 0.704; Y 0.99; M 1.02
G204: Y 0.0127; R 1.32; S 0.807; H 1.43; N 0.413; C 0.575; F -0.0648; T 1; V 0.123; E 0.847; A 1.42; W 0.133; K 0.976; D 0.621; I 0.113; L 0.339; P 1.08; Q 0.897
S196: M 0.982; I 0.678; R 1.16; F 0.117; Y 0.776; G 0.938; N 0.962; V 1.27; D 0.944; Q 1.11; P 0.792; C 1.24; H 1.01; A 0.621; L 0.512; W 0.394; K 0.809; E 1.06; T 0.82
G197: Y 0.74; H 0.619; V 1.14; S 1.12; F 0.852; I 1.09; A 0.912; L 1.06; W 0.323; T 0.444; E 0.192; Q 0.484; N 1.26; D 0.624; R 1.01; M 0.448; C 1.17; P 1.23; K 0.734
G208: R 0.0966; P 0.201; D 0.296; E 0.502; H -0.0252; Q 1.23; T 0.433; L 0.332; V 0.173; C 0.43; I -0.141; K 0.899; Y -0.0457; N 0.00613; A 0.173; W 0.199; F -0.178; M 0.171; S 0.651
S195: H 0.996; F 0.0295; M 0.346; K 0.873; P 0.83; T 1.31; V 0.475; N 0.649; I 0.0828; W -0.0899; Q 0.659; R 1.13; E 0.862; Y 0.427; A 1.31; G 0.859; C 0.945; L 0.116; D 0.8
I211: F 0.181; S 0.773; G 0.694; P -0.156; D 0.837; C 0.481; Y 1.04; M 0.504; R 0.0828; V 1.15; K 0.0368; E -0.399; A -0.0822; L 0.428; W 0.83
L210: V 0.768; G 0.615; H 0.71; P 0.65; M 0.6; S 0.327; A 0.581; Q 0.0497; I 0.93; E -0.0363; C 0.0167; F 1.01; W 0.57; Y 0.854; R 0.504
